Results reported in the supplement of paper PMC9732359.
± gives the uncertainty stated by the source.

Experiment: protein stability index of a GFP-peptide fusion (yeast GPS) (PSI 1-4); higher = more stable; sorted into four equal gates, so the index is relative within each strain
How it was run: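 Plasmids isolated from each sorting gate were PCR-amplified and Illumina-sequenced, and barcodes assigned the reads to strains. The gates, four of equal size, were set by GFP/Cherry fluorescence ratio on mid-log cultures in leucine-free medium. These cultures were yeast carrying a pooled library of tiled 17-residue yeast protein peptides fused downstream of GFP on a plasmid that also expresses Cherry. The protein stability index is the sum of every gate's read frequency times its gate number.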

| Sequence | protein stability index (pdr5∆) | protein stability index (ubr1∆) | protein stability index (doa10∆) | protein stability index (san1∆) |
| --- | --- | --- | --- | --- |
| HLAVVCVDDNSKISFID [SSN2] | 2.84 ± 0.17 | 3.67 ± 0.16 |  |  |
| HLDSFNYFVDTDLKKII [RET1] | 2.85 ± 0.08 | 2.64 ± 0.038 | 2.69 ± 0.094 | 2.67 ± 0.1 |
| HLIKCFFKITLQRASSK [ITC1] | 1.19 ± 0.047 | 1.08 ± 0.051 | 1.38 ± 0.073 | 1.18 ± 0.12 |
| HMISQEGIKETQAKRIF [SWI1] | 3.53 ± 0.21 | 3.22 ± 0.13 | 3.1 ± 0.17 | 3.19 ± 0.11 |
| HMSTYLKIYKVGDIVDI [RPL21B] | 1.64 ± 0.037 | 1.95 ± 0.036 | 1.69 ± 0.036 | 1.95 ± 0.052 |
| HNGRDKIQFHIHFADVA [RGR1] | 1.79 ± 0.049 | 1.84 ± 0.043 | 1.68 ± 0.051 | 1.43 ± 0.079 |
| HNVFSKEQTIQLPSKFT [RPN14] | 2.79 ± 0.085 | 2.64 ± 0.099 | 2.41 ± 0.11 | 2.43 ± 0.12 |
| HPFGHALVAGIERYPLK [RPL27A] | 2.3 ± 0.098 | 2.49 ± 0.062 | 2.53 ± 0.082 | 2.49 ± 0.082 |
| HPFVFEEVEDQINPTRE [SNF2] | 3.5 ± 0.13 | 3.13 ± 0.086 | 3.36 ± 0.077 | 2.94 ± 0.17 |
| HPKIVKKHTKKFKRHHS [RPL32] | 3.06 ± 0.059 | 3.02 ± 0.037 | 2.74 ± 0.054 | 2.66 ± 0.045 |
| HPSIYTQVFNILLQHKE [POP1] | 2.6 ± 0.074 | 2.39 ± 0.044 | 2.25 ± 0.083 | 2.41 ± 0.08 |
| HQHGDKVDIFEIPETGE [FAS2] | 2.75 ± 0.28 | 2.54 ± 0.069 |  |  |
| HQQQLQQPHYIQRTRER [DSN1] | 3.08 ± 0.042 | 2.84 ± 0.042 | 2.95 ± 0.055 | 2.92 ± 0.037 |
| HRDKNKMDMICRNINRK [DIS3] | 2.99 ± 0.17 | 3.33 ± 0.12 | 2.32 ± 0.081 | 2.41 ± 0.083 |
| HRIGQKKQVHVYRFVTE [ISW2] | 2.33 ± 0.051 | 2.12 ± 0.038 | 2.14 ± 0.054 | 2.28 ± 0.075 |
| HRLIATHTNLERDEQKR [SNF2] | 3.25 ± 0.074 | 3.32 ± 0.048 | 3.38 ± 0.069 | 3.01 ± 0.11 |
| HRLSILSHYAKIRPWRT [RPO31] | 2.77 ± 0.066 | 2.84 ± 0.052 | 2.81 ± 0.068 | 2.85 ± 0.087 |
| HSFEDAHTPMLQMYSKI [FAS1] | 3.03 ± 0.086 | 2.84 ± 0.076 | 2.75 ± 0.06 | 2.82 ± 0.096 |
| HSKFRSSSGNTWSLILN [YML031W/NDC1] | 2.72 ± 0.099 | 3.12 ± 0.077 | 2.75 ± 0.1 | 3.15 ± 0.078 |
| HSLAYLLENFANFKTSK [RRP6] | 2.05 ± 0.14 | 2.53 ± 0.17 | 2.68 ± 0.22 | 2.81 ± 0.19 |
| HSNRCIVFSKKEPFPHS [CSN12] | 2.85 ± 0.047 | 2.69 ± 0.037 | 2.49 ± 0.043 | 2.8 ± 0.058 |
| HTGKKLMAQIFFGPTYY [RPB2] | 2.07 ± 0.043 | 1.81 ± 0.029 | 2.64 ± 0.055 | 1.97 ± 0.057 |

| Sequence | protein stability index (pdr5∆) | protein stability index (ubr1∆) | protein stability index (doa10∆) | protein stability index (san1∆) |
| --- | --- | --- | --- | --- |
| HTTQIVNLEDNTQDLLL [YML103C/NUP188] | 3.35 ± 0.12 | 3.07 ± 0.086 | 3.21 ± 0.11 | 3.27 ± 0.069 |
| HTVFTSVNKNKRQAYAV [RPL4A] | 1.17 ± 0.2 |  |  |  |
| HVEKERASTELSQSRIK [YIL149C/MLP2] | 2.93 ± 0.066 | 3.1 ± 0.074 | 3.01 ± 0.089 | 3.12 ± 0.095 |
| HVESDKITAKTQHEEEE [IRR1] | 2.96 ± 0.088 | 2.81 ± 0.11 | 2.85 ± 0.064 | 3.09 ± 0.092 |
| HVVTREKGPQVCAKLFG [RPO21] | 2.81 ± 0.079 | 3.08 ± 0.1 | 3.24 ± 0.082 | 2.95 ± 0.097 |
| HYERTQTKENKRCVGVI [RPN8] | 2.69 ± 0.1 | 2.43 ± 0.057 | 2.9 ± 0.12 | 2.49 ± 0.093 |
| HYVSTSKISQMAQNKTH [YLR018C/POM34] | 2.02 ± 0.035 | 1.87 ± 0.027 | 1.56 ± 0.032 | 1.78 ± 0.058 |
| HYVVLDTNVVLQAIDLL [DIS3] | 2.49 ± 0.073 | 2.39 ± 0.064 | 2.53 ± 0.093 | 2.23 ± 0.1 |
| IAASYHYPEIEDLVDRI [RPP0] | 1.89 ± 0.16 |  |  |  |
| IADELMKLDDSSKTRNV [ITC1] | 2.09 ± 0.12 | 2.78 ± 0.08 | 2.61 ± 0.072 | 2.69 ± 0.072 |
| IADKTTYDKETITDLIE [SIR4] | 3.33 ± 0.064 | 3.27 ± 0.05 | 3.3 ± 0.063 | 3.42 ± 0.051 |
| IAEVGNKRWKVDIGGKQ [RRP4] | 3.32 ± 0.14 | 3.36 ± 0.061 | 3.62 ± 0.19 | 3.22 ± 0.11 |
| IAKPNTANAKHTSSNSR [SMB1] | 2.73 ± 0.094 | 2.87 ± 0.067 | 2.93 ± 0.069 | 2.72 ± 0.089 |
| IAPRPLDLLRPVVRAPT [RPL13A] | 3.15 ± 0.089 | 2.7 ± 0.051 | 2.55 ± 0.08 | 2.1 ± 0.12 |
| IASTEKPENKTDKVSLS [SIR4] | 3.1 ± 0.09 | 2.89 ± 0.088 | 3.21 ± 0.069 | 3.17 ± 0.067 |
| IAVLRSKEWFQLDDEDF [FAS1] | 2.09 ± 0.041 | 2.32 ± 0.038 | 2.03 ± 0.041 | 1.81 ± 0.058 |
| ICLYSSFQKNSLHNTEK [AAR2] | 2.24 ± 0.058 | 2.78 ± 0.057 | 1.99 ± 0.065 | 2.57 ± 0.064 |
| IDADSLEDIYTSAHEAI [RPL5] | 3.02 ± 0.11 | 3.13 ± 0.056 | 2.98 ± 0.097 | 2.9 ± 0.1 |
| IDAMKAVAEAYNNRSLL [RPN6] | 2.07 ± 0.068 | 1.79 ± 0.067 | 1.7 ± 0.061 | 2.28 ± 0.095 |
| IDDANVTRKQEDARRNP [RPC37] | 1.8 ± 0.081 | 2.01 ± 0.1 | 1.45 ± 0.15 | 2.06 ± 0.13 |
| IDEHIDLGIKYDPSIGI [RPL11A] | 3.06 ± 0.039 | 2.903 ± 0.029 | 2.84 ± 0.035 | 2.91 ± 0.03 |
